Values quoted from earlier work as cited in patent US9700485B2, “Delamination resistant pharmaceutical glass containers containing active pharmaceutical ingredients” (Corning Incorporated, priority 2013, dated 2017).
Like-named read-outs stand apart in the source and are kept apart here.

Columns and labels:
[1] = in use test, 10 samples, cited from earlier work
[2] = shaking test, 5 samples, cited from earlier work
HT-29 cells = conditions: cited from earlier work
human IL-17 [3] = molecular target: T1, human IL-17 (Homo sapiens, UniProt Q16552); conditions: cited from earlier work; for Kd: read-out: KD or binding affinity
A431 and BxPC3 xenograft = A431 and BxPC3 xenograft sections; cited from earlier work
EGFR on HT29 cells = molecular target: T2, EGFR on HT29 cells (Homo sapiens, UniProt P00533); conditions: 10 to 100 nM; cited from earlier work
T2 construct: HT29 cells were seeded at 2×10^4 cells per well; endogenous in cells; host or cells: HT29

DiFi cells [4] = conditions: cited from earlier work
EGFR-AP fusion protein = conditions: cited from earlier work; for Koff / Kon: BIAcore, immobilized EGFR-AP fusion protein
BxPC-3 cells = conditions: 1.0 mg/mouse/injection; out of 8 mice; cited from earlier work
DiFi cells [5] = conditions: 72 hours; cited from earlier work
A431 cells = conditions: cited from earlier work; for tumor growth: three times per week
EGFR [6] = molecular target: T3, EGFR (Homo sapiens, UniProt P00533); set-up: endogenous in cells; host or cells: A431; inhibition of EGFR phosphorylation: dose or concentration left out as unconfirmed; conditions: cited from earlier work
EGFR [7] = molecular target: T3, EGFR; conditions: cited from earlier work
EGFR [8] = molecular target: T3, EGFR; set-up: phosphorylation assay, was carried out using BxPC3 or A431 cells; endogenous in cells; host or cells: BxPC3 or A431; conditions: BxPC3 and A431 cells; vs control antibody; cited from earlier work
MAP kinases p44/p42 = conditions: A431, BxPC3 and HT-29 cells; EGF stimulation; cited from earlier work
[9] = −20° C. up to 16 days; DOE; cited from earlier work
[10] = 40° C. up to 14 days; DOE; cited from earlier work
[11] = cited from earlier work; for particulate counts =10 μm/mL / particulate counts =25 μm/mL / particulate counts =50 μm/mL: HIAC
[12] = lyophilized, 4° C., 40° C. and 50° C. up to 4 months; cited from earlier work
[13] = cited from earlier work
[14] = 300 RPM, room temperature, 72 hours; cited from earlier work
[15] = pre and post lyophilized, 0.1 mg/mL; cited from earlier work
human IL-17 [16] = molecular target: T1, human IL-17; conditions: as characterized in the description, cited from earlier work
hTNFSF13b = molecular target: T4, hTNFSF13b (Homo sapiens, UniProt Q9Y275); conditions: as characterized in the description (e.g.); cited from earlier work
T4 construct: purchased Research Diagnostics, Inc., Flanders, N.J

[17] = After Lyophilization, reconstituted to 5 mg/mL
[18] = Before Lyophilization, diluted to 5 mg/mL

T1 sequence (Q16552 24-155): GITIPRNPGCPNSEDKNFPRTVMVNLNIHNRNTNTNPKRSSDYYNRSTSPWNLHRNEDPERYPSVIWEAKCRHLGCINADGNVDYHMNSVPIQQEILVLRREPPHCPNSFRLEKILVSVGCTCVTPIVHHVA
T4 sequence (Q9Y275 134-285 limits assumed): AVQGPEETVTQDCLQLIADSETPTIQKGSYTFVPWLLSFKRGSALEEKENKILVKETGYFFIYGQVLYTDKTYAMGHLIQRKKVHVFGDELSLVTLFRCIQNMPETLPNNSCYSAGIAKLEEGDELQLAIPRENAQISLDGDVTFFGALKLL

21^A-Gly-30^Ba-L-Arg-30^B-L-Arg human insulin [Insulin glargine]
Number of vials with particle formation after 7 days ([1]; storage for 1 month at 37° C.): 0
Number of vials with particle formation after 14 days ([1]; storage for 1 month at 37° C.): 10
Number of vials with particle formation after 21 days ([1]; storage for 1 month at 37° C.): 10
Number of vials with particle formation after 28 days ([1]; storage for 1 month at 37° C.): 10
Number of vials with particle formation after 7 days ([1]; storage for 3 months at 5° C.): 7
Number of vials with particle formation after 14 days ([1]; storage for 3 months at 5° C.): 10
Number of vials with particle formation after 21 days ([1]; storage for 3 months at 5° C.): 10
Number of vials with particle formation after 28 days ([1]; storage for 3 months at 5° C.): 10
Number of vials with particle formation after 7 days ([1]; storage for 3 months at 25° C.): 9
Number of vials with particle formation after 14 days ([1]; storage for 3 months at 25° C.): 10
Number of vials with particle formation after 21 days ([1]; storage for 3 months at 25° C.): 10
Number of vials with particle formation after 28 days ([1]; storage for 3 months at 25° C.): 10
Number of vials with particle formation after 7 days ([1]; storage for 3 months at 37° C.): 5
Number of vials with particle formation after 14 days ([1]; storage for 3 months at 37° C.): 9
Number of vials with particle formation after 21 days ([1]; storage for 3 months at 37° C.): 10
Number of vials with particle formation after 28 days ([1]; storage for 3 months at 37° C.): 10
Number of vials with particle formation after 7 days ([1]; storage for 6 months at 5° C.): 7
Number of vials with particle formation after 14 days ([1]; storage for 6 months at 5° C.): 10
Number of vials with particle formation after 21 days ([1]; storage for 6 months at 5° C.): 10
Number of vials with particle formation after 28 days ([1]; storage for 6 months at 5° C.): 10
Number of vials with particle formation after 7 days ([1]; storage for 6 months at 25° C.): 10
Number of vials with particle formation after 14 days ([1]; storage for 6 months at 25° C.): 10
Number of vials with particle formation after 21 days ([1]; storage for 6 months at 25° C.): 10
Number of vials with particle formation after 28 days ([1]; storage for 6 months at 25° C.): 10
Number of vials with particle formation after 7 days ([1]; storage for 6 months at 37° C.): 10
Number of vials with particle formation after 14 days ([1]; storage for 6 months at 37° C.): 10
Number of vials with particle formation after 21 days ([1]; storage for 6 months at 37° C.): 10
Number of vials with particle formation after 28 days ([1]; storage for 6 months at 37° C.): 10
Number of Vials >15 FNU, 0 days ([2]; storage for 1 month at 5° C.): 0
Number of Vials >15 FNU, 0.5 days ([2]; storage for 1 month at 5° C.): 0
Number of Vials >15 FNU, 1 day ([2]; storage for 1 month at 5° C.): 0
Number of Vials >15 FNU, 2 days ([2]; storage for 1 month at 5° C.): 2
Number of Vials >15 FNU, 3 days ([2]; storage for 1 month at 5° C.): 3
Number of Vials >15 FNU, 4 days ([2]; storage for 1 month at 5° C.): 3
Number of Vials >15 FNU, 6 days ([2]; storage for 1 month at 5° C.): 4
Number of Vials >15 FNU, 8 days ([2]; storage for 1 month at 5° C.): 4
Number of Vials >15 FNU, 10 days ([2]; storage for 1 month at 5° C.): 4
Number of Vials >15 FNU, 0 days ([2]; storage for 1 month at 25° C.): 0
Number of Vials >15 FNU, 0.5 days ([2]; storage for 1 month at 25° C.): 0
Number of Vials >15 FNU, 1 day ([2]; storage for 1 month at 25° C.): 0
Number of Vials >15 FNU, 2 days ([2]; storage for 1 month at 25° C.): 1
Number of Vials >15 FNU, 3 days ([2]; storage for 1 month at 25° C.): 1
Number of Vials >15 FNU, 4 days ([2]; storage for 1 month at 25° C.): 1
Number of Vials >15 FNU, 6 days ([2]; storage for 1 month at 25° C.): 1
Number of Vials >15 FNU, 8 days ([2]; storage for 1 month at 25° C.): 2
Number of Vials >15 FNU, 10 days ([2]; storage for 1 month at 25° C.): 3
Number of Vials >15 FNU, 0 days ([2]; storage for 1 month at 37° C.): 0
Number of Vials >15 FNU, 0.5 days ([2]; storage for 1 month at 37° C.): 0
Number of Vials >15 FNU, 1 day ([2]; storage for 1 month at 37° C.): 0
Number of Vials >15 FNU, 2 days ([2]; storage for 1 month at 37° C.): 2
Number of Vials >15 FNU, 3 days ([2]; storage for 1 month at 37° C.): 5
Number of Vials >15 FNU, 4 days ([2]; storage for 1 month at 37° C.): 5
Number of Vials >15 FNU, 6 days ([2]; storage for 1 month at 37° C.): 5
Number of Vials >15 FNU, 8 days ([2]; storage for 1 month at 37° C.): 5
Number of Vials >15 FNU, 10 days ([2]; storage for 1 month at 37° C.): 5

Human IL-17: recombinant human IL-17 (R&D Systems)
AVG GROα (HT-29 cells; Human IL-17 0.10 ng/mL): 205.8 pg/mL
AVG GROα (HT-29 cells; Human IL-17 12.00 ng/mL): 960.0 pg/mL
AVG GROα (pg/mL) (HT-29 cells; Human IL-17 60.00 ng/mL): 1,556.0 pg/mL
AVG GROα (pg/mL) (HT-29 cells; Human IL-17 300.00 ng/mL): 2,047.5 pg/mL
AVG GROα (pg/mL) (HT-29 cells; Human IL-17 1500.00 ng/mL): 2,420.4 pg/mL

IL-17 receptor Fc-fusion protein: IL-17 receptor Fc-fusion protein (R&D #177-IR)
fast off-rate (human IL-17 [3]; Bivalent analyte model, 25° C.): 20.3 s⁻¹
on-rate (human IL-17 [3]; Bivalent analyte model, 25° C.): 106000 M⁻¹ s⁻¹
slow off-rate (human IL-17 [3]; Bivalent analyte model, 25° C.): 0.000163 s⁻¹
Kd (human IL-17 [3]; from fast off-rate): 190000 nM
Kd (human IL-17 [3]; from slow off-rate): 1.5 nM

IMC-11F8: fully human monoclonal antibody (IgG1) that binds to human EGFR
Ki-67 positive cells (A431 and BxPC3 xenograft): reduced the percentage of Ki-67 positive cells across the entire tumor section
tumor cell density and necrotic area (IHC) (A431 and BxPC3 xenograft): markedly reduced the tumor cell density and increased the area of necrotic acellular debris within the tumors
inhibition of ^125I-EGF binding (EGFR on HT29 cells): as efficient as IMC-C225 in inhibiting ^125I-EGF binding to EGFR on HT29 cells
ADCC activity (DiFi cells [4]): mediate cell death via activation of the Antibody Dependent Cellular Cytotoxicity
Koff (EGFR-AP fusion protein; Format Fab): 36.7 ± 8.5 10^−4s^−1
Kon (EGFR-AP fusion protein; Format Fab): 22.9 ± 9.9 10^5 M^−1s^−1
Kd (EGFR-AP fusion protein; Format Fab, calculated as koff/kon): 1.78 ± 0.5 nM
Koff (EGFR-AP fusion protein; Format IgG): 5.8 ± 2.2 10^−4s^−1
Kon (EGFR-AP fusion protein; Format IgG): 18.6 ± 7.7 10^5 M^−1s^−1
tumor regression (BxPC-3 cells): 5
inhibition of cell proliferation (MTT) (DiFi cells [5]): as potent an inhibitor of cell proliferation as IMC-C225
tumor growth (A431 cells; 0.3 mg dose i.p.): progression of tumor growth is retarded
tumor growth (A431 cells; 1 mg dose i.p.): as effective as IMC-C225 (CETUXIMAB) in suppressing or inhibiting tumor growth as compared to control animals
tumor regressions (A431 cells; 1.0 mg/mouse/injection, out of 8 animals): 6
inhibition of EGFR phosphorylation (EGFR [6]; A431, BxPC3, HT-29, lowest antibody concentration tested): Greater than 70%
EGFR phosphorylation (Western blot) (EGFR [6]; A431 cells): inhibits EGFR phosphorylation
binding to EGFR (ELISA) (EGFR [7]): comparable binding to EGFR
phosphorylation of EGFR (KIRA) (EGFR [8]): marked decrease in phosphorylation of EGFR
p44/42 MAP kinases phosphorylation (MAP kinases p44/p42): blocked p44/42 MAP kinases phosphorylation following EGF stimulation in A431, BxPC3 and HT-29 cells in a dose-dependent manner

IMC-1121B: fully human monoclonal (IgG1) anti-VEGFR-2 (flk-1) antibody
optimal pH [9]: 6.0
optimal buffer [10]: histidine at pH 6.0

IMC-A12: fully human IgG1/λ monoclonal antibody binding insulin-like growth factor-I receptor (IGF-IR)
particulate counts =10 μm/mL [11, 17]: 38.67 mL⁻¹
particulate counts =25 μm/mL [11, 17]: 0.33 mL⁻¹
particulate counts =50 μm/mL [11, 17]: 0.00 mL⁻¹
particulate counts =10 μm/mL [11, 18]: 26.33 mL⁻¹
particulate counts =25 μm/mL [11, 18]: 1.67 mL⁻¹
particulate counts =50 μm/mL [11, 18]: 0.00 mL⁻¹
particulate counts (HIAC) ([11]; before and after lyophilization, 5 mg/mL): The particulate counts did not changed significantly
rate of monomer change [12]: smallest at lowest IMC-A12 concentration and at highest trehalose to IMC-A12 ratio
percent monomer ([13]; −20° C. and −70° C. up to 3 months, PBS and Citrate formulations): The percent monomer did not change with time in either formulation
percent monomer as a function of pH ([13]; −20° C. and −70° C., three weeks): The pH did not have significant effect on percent monomer
percent loss and percent monomer as a function of pH [14]: Percent loss was least and percent monomer was highest between pH 6.0-7.0
secondary structure (circular dichorism) [15]: Secondary structure of IMC-A12 was not altered because of lyophilization

LY2439821: humanized anti-IL-17 (IL-17A) monoclonal antibody
koff rate from human IL-17 (human IL-17 [16]): less than 2×10^−5 s^−1
Kd (human IL-17 [16]; read-out: binding affinity (KD) for human IL-17): < 0.007 nM

B1: LY2127399: human monoclonal antibody that specifically binds to TNFSF13b polypeptides (antibody, chains of the INN, looked up, V domains shown)
VH: QVQLQQWGAGLLKPSETLSLTCAVYGGSFSGYYWSWIRQPPGKGLEWIGEINHSGSTNYNPSLKSRVTISVDTSKNQFSLKLSSVTAADTAVYYCARGYYDILTGYYYYFDYWGQGTLVTVSS
VL: EIVLTQSPATLSLSPGERATLSCRASQSVSRYLAWYQQKPGQAPRLLIYDASNRATGIPARFSGSGSGTDSTLTISSLEPEDFAVYYCQQRSNWPRTFGQGTKVEIK
Kd (hTNFSF13b): ≤ 10 nM
